Measured values: article PMC2364164

Biological target: recombinant fusion protein of MVP and glutathione-S-transferase (GST-MVP) (human) (UniProt Q14764)
Assay: SPR; BIAcore 2000; GST-MVP immobilised on CM-5 sensorchip (2000 resonance units); soluble Fab flowed at 25 μl per minute, room temperature, HBS-EP (0.01 M HEPES pH 7.4, 0.15 M NaCl, 3 mM EDTA, 0.005% polysorbate 20); dissociation rates only

UniProt Q14764, sequence (Q14764 whole entry, the tested form may be a part): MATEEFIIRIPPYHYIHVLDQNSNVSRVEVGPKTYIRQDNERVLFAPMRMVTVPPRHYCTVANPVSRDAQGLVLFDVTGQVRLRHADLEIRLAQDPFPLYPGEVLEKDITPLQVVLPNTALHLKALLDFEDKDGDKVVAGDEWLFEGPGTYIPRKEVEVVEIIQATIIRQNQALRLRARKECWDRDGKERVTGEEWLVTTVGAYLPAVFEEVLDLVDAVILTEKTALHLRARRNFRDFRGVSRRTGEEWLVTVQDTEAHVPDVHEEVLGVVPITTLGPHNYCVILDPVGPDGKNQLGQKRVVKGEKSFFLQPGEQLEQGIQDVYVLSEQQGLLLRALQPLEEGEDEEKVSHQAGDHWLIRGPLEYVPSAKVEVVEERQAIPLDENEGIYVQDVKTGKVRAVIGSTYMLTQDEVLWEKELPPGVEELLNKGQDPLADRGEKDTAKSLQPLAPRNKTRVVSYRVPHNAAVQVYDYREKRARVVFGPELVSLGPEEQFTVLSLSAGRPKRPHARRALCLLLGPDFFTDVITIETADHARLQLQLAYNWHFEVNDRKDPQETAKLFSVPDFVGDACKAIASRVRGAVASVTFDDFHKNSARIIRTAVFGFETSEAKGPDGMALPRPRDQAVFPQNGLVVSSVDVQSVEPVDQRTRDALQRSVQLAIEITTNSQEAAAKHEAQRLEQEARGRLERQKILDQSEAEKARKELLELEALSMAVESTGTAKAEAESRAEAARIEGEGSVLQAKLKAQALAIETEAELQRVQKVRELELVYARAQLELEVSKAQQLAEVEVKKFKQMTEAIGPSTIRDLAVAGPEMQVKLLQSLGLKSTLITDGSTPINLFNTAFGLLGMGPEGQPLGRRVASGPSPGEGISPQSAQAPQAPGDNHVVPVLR

B1: MVP-φ4 human Fab fragment (soluble) (Fab, V domains shown)
VH: QLQLQESGPGLVKPSETLSLTCSVSGGSISSGGYYWSWIRQRPGKGLEWIGYIYYSGSTTYNPSLKSRVTMSVDTSKNQFSLKLSSVTAADTAFYYCARQGVYYYYGMDVWGQGTTVTVSS
VL: NFMLTQPHSVSESPGKTITISCTRSSGSIGSNYVYWYQQRPDSSPTIVIYADNERPSGVPGRFSGSIDSSSNSASLTISGLRAEDEADYYCQSYSNNKWIFGGGTKVTVL
koff: 0.0013 s⁻¹
